Measurements published in the supplement of paper PMC10065799, “High-throughput profiling of sequence recognition by tyrosine kinases and SH2 domains using bacterial peptide display” (eLife, 2023).

Experiments:
AncSZ = assay: phosphorylation enrichment, bacterial display (enrichment ratio); higher = better substrate or ligand; peptides without Tyr show the background
EPHB1 = EPHB1 (UniProt P54762); assay: as above
EPHB2 = EPHB2 (UniProt P29323); assay: as above
FGFR1 = FGFR1 (UniProt P11362); assay: as above
FGFR3 = FGFR3 (UniProt P22607); assay: as above
Fer (mouse) = assay: as above
Fes = Fes (UniProt P07332); assay: as above
Fyn = Fyn (UniProt P06241); assay: as above
Hck = Hck (UniProt P08631); assay: as above
Jak2 = Jak2 (UniProt O60674); assay: as above
MERTK = MERTK (UniProt Q12866); assay: as above
c-Abl (mouse) = assay: as above
c-Src = assay: as above
Grb2 SH2 = Grb2 SH2 (UniProt P62993); assay: SH2 binding enrichment of the phosphorylated peptide, bacterial display (enrichment ratio); higher = better substrate or ligand; peptides without Tyr show the background
SHP2-C SH2 = assay: as above
c-Src SH2 = assay: as above
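Throughout, for SH2 binding enrichment of the phosphorylated peptide, bacterial display: peptide library displayed on the E. coli surface as eCPX fusions, selected cells deep-sequenced, score is each peptide's frequency after selection divided by its frequency in the input.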
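Throughout, for phosphorylation enrichment, bacterial display: 11-residue human phosphosite peptides and single-mutation variants displayed on the E. coli surface, counted by deep sequencing, each peptide's frequency after selection divided by its frequency in the unselected input library; frequency after pTyr selection over input frequency; kinase dosed for 20-30% of maximal phosphorylation in three min.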

Sequence of FGFR1 (P11362 whole entry, looked up): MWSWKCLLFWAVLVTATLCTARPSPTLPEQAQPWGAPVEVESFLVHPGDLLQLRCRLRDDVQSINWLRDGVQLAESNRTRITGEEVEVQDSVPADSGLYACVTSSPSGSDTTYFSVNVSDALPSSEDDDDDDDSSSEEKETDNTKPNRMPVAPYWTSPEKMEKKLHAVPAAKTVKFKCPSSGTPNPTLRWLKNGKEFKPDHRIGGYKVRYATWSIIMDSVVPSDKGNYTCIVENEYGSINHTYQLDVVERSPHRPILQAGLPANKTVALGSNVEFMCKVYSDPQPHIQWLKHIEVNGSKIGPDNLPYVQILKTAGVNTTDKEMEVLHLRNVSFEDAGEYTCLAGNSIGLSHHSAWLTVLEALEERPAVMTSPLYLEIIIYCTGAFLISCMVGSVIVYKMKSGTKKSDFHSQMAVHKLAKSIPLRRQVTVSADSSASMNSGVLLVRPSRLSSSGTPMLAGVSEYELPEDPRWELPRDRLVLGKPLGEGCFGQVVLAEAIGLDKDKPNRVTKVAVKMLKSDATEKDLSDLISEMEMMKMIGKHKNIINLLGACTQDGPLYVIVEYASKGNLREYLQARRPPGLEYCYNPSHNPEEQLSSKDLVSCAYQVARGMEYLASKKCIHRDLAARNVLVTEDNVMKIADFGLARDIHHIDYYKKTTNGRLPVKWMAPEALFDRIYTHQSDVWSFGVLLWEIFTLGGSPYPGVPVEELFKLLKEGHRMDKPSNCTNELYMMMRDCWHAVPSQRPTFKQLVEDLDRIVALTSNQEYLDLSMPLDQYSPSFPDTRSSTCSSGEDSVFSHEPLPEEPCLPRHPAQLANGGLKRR
Sequence of Hck (P08631 whole entry, looked up): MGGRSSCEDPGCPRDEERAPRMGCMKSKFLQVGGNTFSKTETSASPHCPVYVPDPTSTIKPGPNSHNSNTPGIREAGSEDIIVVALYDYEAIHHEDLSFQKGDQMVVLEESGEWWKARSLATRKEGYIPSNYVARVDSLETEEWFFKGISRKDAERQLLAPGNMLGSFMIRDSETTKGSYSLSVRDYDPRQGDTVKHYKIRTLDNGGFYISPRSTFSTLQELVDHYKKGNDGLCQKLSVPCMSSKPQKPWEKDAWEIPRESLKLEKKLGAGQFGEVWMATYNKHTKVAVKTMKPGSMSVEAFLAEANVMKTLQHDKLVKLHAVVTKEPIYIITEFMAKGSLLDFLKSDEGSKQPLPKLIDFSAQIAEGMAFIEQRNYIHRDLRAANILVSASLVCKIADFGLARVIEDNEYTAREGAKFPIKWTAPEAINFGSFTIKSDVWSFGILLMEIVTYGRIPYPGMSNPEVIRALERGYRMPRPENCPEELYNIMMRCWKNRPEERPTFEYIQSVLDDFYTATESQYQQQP
Sequence of Fes (P07332 whole entry, looked up): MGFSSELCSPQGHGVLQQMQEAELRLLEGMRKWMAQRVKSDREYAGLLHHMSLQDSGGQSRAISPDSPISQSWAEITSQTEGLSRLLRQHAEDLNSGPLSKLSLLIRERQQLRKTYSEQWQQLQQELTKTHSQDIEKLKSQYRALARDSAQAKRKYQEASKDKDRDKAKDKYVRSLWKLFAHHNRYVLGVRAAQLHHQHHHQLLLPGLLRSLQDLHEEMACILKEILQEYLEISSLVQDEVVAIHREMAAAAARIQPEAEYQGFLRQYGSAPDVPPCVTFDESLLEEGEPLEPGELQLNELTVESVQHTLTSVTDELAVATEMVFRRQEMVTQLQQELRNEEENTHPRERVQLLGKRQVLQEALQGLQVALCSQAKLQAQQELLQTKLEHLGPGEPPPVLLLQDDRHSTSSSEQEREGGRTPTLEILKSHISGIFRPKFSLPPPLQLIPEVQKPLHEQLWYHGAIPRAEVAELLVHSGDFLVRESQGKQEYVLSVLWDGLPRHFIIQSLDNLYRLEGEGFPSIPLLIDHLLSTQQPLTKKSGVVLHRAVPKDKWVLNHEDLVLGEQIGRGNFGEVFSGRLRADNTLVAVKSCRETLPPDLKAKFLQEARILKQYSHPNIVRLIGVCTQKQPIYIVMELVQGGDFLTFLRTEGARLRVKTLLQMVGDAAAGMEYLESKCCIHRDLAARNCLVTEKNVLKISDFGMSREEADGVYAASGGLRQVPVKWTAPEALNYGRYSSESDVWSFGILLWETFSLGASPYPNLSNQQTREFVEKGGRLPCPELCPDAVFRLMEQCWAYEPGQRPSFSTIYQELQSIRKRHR
Sequence of MERTK (Q12866 whole entry, looked up): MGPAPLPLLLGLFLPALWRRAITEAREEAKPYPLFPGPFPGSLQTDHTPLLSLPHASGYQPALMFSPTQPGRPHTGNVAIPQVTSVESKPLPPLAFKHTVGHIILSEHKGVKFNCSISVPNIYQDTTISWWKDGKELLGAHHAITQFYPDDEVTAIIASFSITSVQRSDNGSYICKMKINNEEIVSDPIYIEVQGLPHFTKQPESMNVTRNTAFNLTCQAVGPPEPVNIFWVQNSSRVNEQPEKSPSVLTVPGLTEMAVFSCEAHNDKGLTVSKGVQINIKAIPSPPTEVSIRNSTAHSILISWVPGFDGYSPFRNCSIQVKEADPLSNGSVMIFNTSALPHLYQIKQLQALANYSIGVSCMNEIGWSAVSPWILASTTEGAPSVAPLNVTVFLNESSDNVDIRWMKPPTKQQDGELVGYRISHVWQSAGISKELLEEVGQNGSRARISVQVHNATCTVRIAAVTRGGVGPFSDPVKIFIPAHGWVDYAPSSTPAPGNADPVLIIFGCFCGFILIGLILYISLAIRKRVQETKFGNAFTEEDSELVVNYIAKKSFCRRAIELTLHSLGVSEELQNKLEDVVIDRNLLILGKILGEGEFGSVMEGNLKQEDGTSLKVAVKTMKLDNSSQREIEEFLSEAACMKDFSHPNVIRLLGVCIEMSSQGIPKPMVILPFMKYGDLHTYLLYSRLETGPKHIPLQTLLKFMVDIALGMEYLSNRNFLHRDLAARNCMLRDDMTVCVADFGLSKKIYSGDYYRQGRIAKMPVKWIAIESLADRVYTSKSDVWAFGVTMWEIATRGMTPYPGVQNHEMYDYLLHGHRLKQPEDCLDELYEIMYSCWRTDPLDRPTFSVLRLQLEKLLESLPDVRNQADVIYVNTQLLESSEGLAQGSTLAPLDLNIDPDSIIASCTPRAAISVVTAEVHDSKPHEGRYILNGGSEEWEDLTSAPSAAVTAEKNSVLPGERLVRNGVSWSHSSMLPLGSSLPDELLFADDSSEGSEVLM
Sequence of Jak2 (O60674 whole entry, looked up): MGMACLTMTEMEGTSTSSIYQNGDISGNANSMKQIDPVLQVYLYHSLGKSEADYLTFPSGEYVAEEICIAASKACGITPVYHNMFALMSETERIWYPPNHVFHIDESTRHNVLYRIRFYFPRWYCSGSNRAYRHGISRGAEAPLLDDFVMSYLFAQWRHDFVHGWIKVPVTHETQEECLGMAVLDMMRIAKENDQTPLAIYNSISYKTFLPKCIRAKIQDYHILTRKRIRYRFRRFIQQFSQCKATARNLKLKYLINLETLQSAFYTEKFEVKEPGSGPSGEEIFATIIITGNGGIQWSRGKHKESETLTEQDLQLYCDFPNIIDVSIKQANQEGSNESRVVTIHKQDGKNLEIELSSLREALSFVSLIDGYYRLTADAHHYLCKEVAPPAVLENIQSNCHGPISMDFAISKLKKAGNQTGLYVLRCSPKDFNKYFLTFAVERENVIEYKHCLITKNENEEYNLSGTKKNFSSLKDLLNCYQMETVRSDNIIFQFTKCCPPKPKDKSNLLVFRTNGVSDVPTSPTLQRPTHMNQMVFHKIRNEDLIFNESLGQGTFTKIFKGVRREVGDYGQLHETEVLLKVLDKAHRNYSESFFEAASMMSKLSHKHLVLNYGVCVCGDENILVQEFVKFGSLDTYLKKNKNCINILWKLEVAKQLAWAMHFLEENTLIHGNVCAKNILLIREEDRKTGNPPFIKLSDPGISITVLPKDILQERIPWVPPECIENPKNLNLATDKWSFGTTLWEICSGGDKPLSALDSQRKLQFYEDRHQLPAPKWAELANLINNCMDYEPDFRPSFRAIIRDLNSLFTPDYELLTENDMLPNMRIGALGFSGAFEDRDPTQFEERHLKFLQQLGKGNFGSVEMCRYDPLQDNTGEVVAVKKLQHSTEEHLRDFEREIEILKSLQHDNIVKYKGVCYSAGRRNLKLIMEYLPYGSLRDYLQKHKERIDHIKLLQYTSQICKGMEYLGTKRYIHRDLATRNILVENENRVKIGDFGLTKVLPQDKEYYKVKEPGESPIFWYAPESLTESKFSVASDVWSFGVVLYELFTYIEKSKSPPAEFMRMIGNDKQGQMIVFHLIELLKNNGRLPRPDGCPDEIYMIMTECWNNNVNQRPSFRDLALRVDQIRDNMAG
Sequence of Fyn (P06241 whole entry, looked up): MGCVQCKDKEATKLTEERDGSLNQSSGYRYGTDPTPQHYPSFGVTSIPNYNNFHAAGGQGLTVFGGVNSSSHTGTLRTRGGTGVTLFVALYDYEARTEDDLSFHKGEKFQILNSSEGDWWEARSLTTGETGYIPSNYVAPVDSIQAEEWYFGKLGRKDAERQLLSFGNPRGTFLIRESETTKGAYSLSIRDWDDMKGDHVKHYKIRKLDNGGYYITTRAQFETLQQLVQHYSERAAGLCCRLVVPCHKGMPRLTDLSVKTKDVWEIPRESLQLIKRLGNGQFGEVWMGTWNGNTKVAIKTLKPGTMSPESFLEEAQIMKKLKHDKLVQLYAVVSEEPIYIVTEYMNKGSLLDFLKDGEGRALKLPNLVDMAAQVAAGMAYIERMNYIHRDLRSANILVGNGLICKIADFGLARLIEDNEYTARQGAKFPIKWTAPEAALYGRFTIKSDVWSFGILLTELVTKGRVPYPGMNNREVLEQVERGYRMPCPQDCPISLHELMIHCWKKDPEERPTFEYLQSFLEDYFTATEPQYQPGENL

Row | SH2 binding enrichment (Grb2 SH2) | SH2 binding enrichment (SHP2-C SH2) | SH2 binding enrichment (c-Src SH2) | Sequence | phosphorylation enrichment (AncSZ) | phosphorylation enrichment (EPHB1) | phosphorylation enrichment (EPHB2) | phosphorylation enrichment (FGFR1) | phosphorylation enrichment (FGFR3) | phosphorylation enrichment (Fer (mouse)) | phosphorylation enrichment (Fes) | phosphorylation enrichment (Fyn) | phosphorylation enrichment (Hck) | phosphorylation enrichment (Jak2) | phosphorylation enrichment (MERTK) | phosphorylation enrichment (c-Abl (mouse)) | phosphorylation enrichment (c-Src)
1 | 0.692 | 0.591 | 0.466 | SSNLFYRWLTA [CNGA3_Y169_YF] | 1.09 | 0.594 | 0.526 | 0.621 | 0.744 | 0.493 | 0.982 | 0.473 | 0.557 | 0.846 | 0.532 | 0.665 | 0.398
2 | 0.863 | 0.78 | 0.481 | ISNATYKQIGL [FLT1_Y199_E201Q] | 0.667 | 0.421 | 0.342 | 0.378 | 0.399 | 0.362 | 0.582 | 0.434 | 0.349 | 0.513 | 0.419 | 0.566 | 0.399
3 | 0.883 | 0.671 | 0.452 | EVKEAYMGSVL [ACAT1_Y90_N93S] | 0.841 | 0.485 | 0.532 | 0.407 | 0.527 | 0.398 | 0.995 | 0.489 | 0.447 | 0.83 | 0.463 | 0.744 | 0.592
4 | 0.953 | 0.681 | 0.49 | LVRAFYCERRW [CARD11_Y970_R975W] | 1.05 | 0.671 | 0.623 | 0.575 | 0.697 | 0.59 | 0.745 | 0.649 | 0.634 | 0.857 | 0.64 | 0.695 | 0.489
5 | 1.32 | 1.59 | 0.816 | PSSNLYYRWLT [CNGA3_Y168] | 1.89 | 3.17 | 4.17 | 13.5 | 9.96 | 6.19 | 1.4 | 3.84 | 8.15 | 7.82 | 12.4 | 7.69 | 4.28
6 | 1.03 | 0.906 | 0.536 | RHYVYYYSYLL [PTEN_Y177_R173H] | 1.89 | 2.69 | 2.13 | 7.03 | 6.42 | 1.37 | 2.26 | 1.59 | 2.49 | 3.46 | 5.71 | 1.35 | 2.18
7 | 0.915 | 0.933 | 0.507 | GVRFIYTIDGS [DCX_Y105_YF] | 1.41 | 0.628 | 0.737 | 0.546 | 0.843 | 0.669 | 1.59 | 1.04 | 0.674 | 1.45 | 0.48 | 0.924 | 1.01
8 | 0.997 | 0.562 | 0.428 | GGSDRYGSLRP [MYLK_Y846] | 0.494 | 0.385 | 0.418 | 0.425 | 0.407 | 0.332 | 0.61 | 0.385 | 0.339 | 0.716 | 0.37 | 0.495 | 0.452
9 | 1.03 | 0.668 | 0.613 | RFGKVYKAHLF [ROR2_Y488_G490A] | 0.622 | 0.476 | 0.583 | 0.72 | 0.733 | 0.846 | 0.604 | 0.57 | 0.645 | 0.39 | 0.509 | 0.594 | 0.886
10 | 0.826 | 0.567 | 0.448 | RTLSEYARRHV [RERE_Y1259_P1262R] | 0.613 | 0.353 | 0.373 | 0.393 | 0.494 | 0.404 | 0.629 | 0.338 | 0.461 | 0.596 | 0.572 | 2.14 | 0.446
11 | 0.891 | 1.12 | 0.542 | GRTPLYMDRQG [AGXT_Y194_G190R] | 0.575 | 0.452 | 0.443 | 0.396 | 0.415 | 0.344 | 0.498 | 0.495 | 0.702 | 0.472 | 0.432 | 0.473 | 0.528
12 | 0.95 | 0.836 | 0.542 | RKGGSYSQAAS [HLA-A_Y344_T345S] | 0.599 | 0.498 | 0.491 | 0.523 | 0.567 | 0.294 | 0.625 | 0.537 | 0.38 | 0.401 | 0.656 | 0.738 | 0.741
13 | 1.04 | 0.577 | 0.625 | VTQEQYELYCE [CBL_Y368] | 1.75 | 0.814 | 0.71 | 0.622 | 0.894 | 0.887 | 1.32 | 0.684 | 0.989 | 1.17 | 0.571 | 0.883 | 0.892
14 | 0.966 | 0.689 | 0.72 | DCAAIYGNEPE [AKR1A1_Y50] | 1.27 | 0.612 | 0.694 | 0.588 | 0.734 | 0.672 | 1.22 | 1.02 | 0.897 | 1.42 | 0.806 | 0.799 | 1.42
15 | 0.763 | 0.678 | 0.632 | SLGKGYSDGGC [MC4R_Y35] | 0.636 | 0.456 | 0.473 | 0.576 | 0.585 | 0.399 | 0.773 | 0.47 | 0.427 | 0.719 | 0.392 | 0.603 | 0.387
16 | 1.14 | 1.35 | 0.807 | WIPIQYPIISE [NOG_Y222] | 0.782 | 0.421 | 0.439 | 0.394 | 0.571 | 0.508 | 0.807 | 0.427 | 0.439 | 0.622 | 0.343 | 0.59 | 0.354
17 | 0.636 | 0.968 | 0.479 | TIQRMYGCDVG [HLA-A_Y123_I121R] | 0.761 | 0.504 | 0.57 | 0.56 | 0.598 | 0.46 | 1.05 | 0.442 | 0.45 | 0.789 | 0.448 | 0.775 | 0.594

Row | SH2 binding enrichment (Grb2 SH2) | SH2 binding enrichment (SHP2-C SH2) | SH2 binding enrichment (c-Src SH2) | Sequence | phosphorylation enrichment (AncSZ) | phosphorylation enrichment (EPHB1) | phosphorylation enrichment (EPHB2) | phosphorylation enrichment (FGFR1) | phosphorylation enrichment (FGFR3) | phosphorylation enrichment (Fer (mouse)) | phosphorylation enrichment (Fes) | phosphorylation enrichment (Fyn) | phosphorylation enrichment (Hck) | phosphorylation enrichment (Jak2) | phosphorylation enrichment (MERTK) | phosphorylation enrichment (c-Abl (mouse)) | phosphorylation enrichment (c-Src)
18 | 0.651 | 0.556 | 0.33 | EEVKAYLDFRE [CHAC2_Y78] | 1.2 | 0.652 | 0.765 | 0.584 | 0.865 | 0.651 | 1.44 | 0.605 | 0.601 | 1.35 | 0.524 | 0.867 | 0.59
19 | 1.24 | 1.16 | 1.83 | RAIGYYSATSK [FAM120A_Y328] | 0.765 | 0.622 | 0.515 | 0.438 | 0.453 | 0.563 | 0.631 | 0.502 | 0.37 | 0.73 | 1.17 | 0.639 | 0.593
20 | 0.694 | 0.527 | 0.643 | QFNMQYSSSAA [ERBB2IP_Y981_I979M_YF] | 0.937 | 0.592 | 0.529 | 0.558 | 0.674 | 0.492 | 1.18 | 0.388 | 0.47 | 0.581 | 0.492 | 0.449 | 0.346
21 | 1.85 | 1.31 | 1.27 | AVARPYHIQKW [ACSBG1_Y677_A673V] | 0.643 | 0.381 | 0.358 | 0.468 | 0.506 | 0.332 | 0.584 | 0.391 | 0.402 | 0.461 | 0.362 | 0.573 | 0.401
22 | 0.951 | 3.73 | 10.6 | CTTTHYNYMCN [TP53_Y234_I232T] | 0.708 | 0.563 | 0.592 | 0.551 | 0.533 | 0.446 | 0.722 | 0.441 | 0.497 | 0.58 | 0.391 | 0.484 | 0.424
23 | 1.28 | 1.01 | 0.942 | TSFSGYRFHRH [NKAPL_Y94_YF] | 0.558 | 0.429 | 0.471 | 0.44 | 0.677 | 0.384 | 0.788 | 0.472 | 0.515 | 0.546 | 0.452 | 0.601 | 0.579
24 | 1.22 | 1.84 | 10.3 | TMKSHYMELYD [BBS2_Y644_R643H] | 0.807 | 0.971 | 0.683 | 0.568 | 0.64 | 0.453 | 1.01 | 0.69 | 0.953 | 0.864 | 1.34 | 0.693 | 1.2
25 | 1.01 | 1.21 | 0.812 | HCHEGYILHGA [SVEP1_Y2921] | 1.45 | 1.27 | 0.746 | 0.722 | 0.768 | 0.45 | 1.78 | 0.888 | 0.827 | 1.94 | 0.945 | 1.61 | 1.12
26 | 0.744 | 0.641 | 0.373 | SSMIDYNPLEK [MYOC_Y479] | 0.971 | 0.517 | 0.533 | 0.475 | 0.595 | 0.44 | 0.945 | 0.596 | 0.512 | 1.07 | 0.463 | 0.663 | 0.689
27 | 0.827 | 0.743 | 0.439 | MLEAPYVDRNS [F10_Y384_V382A] | 0.747 | 0.452 | 0.451 | 0.455 | 0.557 | 0.391 | 0.954 | 0.465 | 0.497 | 0.739 | 0.343 | 0.689 | 0.435
28 | 0.945 | 0.634 | 4.89 | TMKSRYMELFD [BBS2_Y644_YF] | 0.765 | 0.523 | 0.437 | 0.482 | 0.667 | 0.382 | 0.914 | 0.447 | 0.48 | 0.71 | 0.42 | 0.613 | 0.418
29 | 1.27 | 1.13 | 0.856 | KIVFVYVKKRS [DNAI2_Y7_E2K_YF] | 1.06 | 0.439 | 0.48 | 0.466 | 0.731 | 0.478 | 0.966 | 0.425 | 0.449 | 0.925 | 0.354 | 0.576 | 0.428
30 | 0.926 | 0.821 | 0.759 | RREQDYTNLPS [CSF1R_Y923_R921Q] | 0.805 | 0.573 | 0.468 | 1.01 | 0.951 | 0.532 | 1.75 | 0.446 | 0.492 | 0.449 | 0.466 | 0.691 | 0.446
31 | 0.904 | 0.932 | 0.608 | CGTPTCLAPEV [CHEK2_Y390_Y390C] | 1.18 | 0.545 | 0.695 | 0.566 | 0.627 | 0.54 | 1.1 | 0.504 | 0.436 | 0.816 | 0.491 | 0.759 | 0.454
32 | 0.659 | 0.467 | 0.586 | DGQVNYEGFVQ [CALM1_Y139_E141G] | 0.996 | 1.31 | 1.01 | 0.496 | 0.724 | 0.793 | 1.07 | 0.512 | 0.553 | 1.04 | 0.453 | 1.19 | 0.603
33 | 0.731 | 0.576 | 0.752 | DVLEFYNSKKT [PAK1_Y131] | 1.08 | 0.517 | 0.544 | 0.856 | 0.718 | 1.13 | 1.38 | 0.525 | 0.518 | 1.11 | 0.405 | 0.925 | 0.504
